The values below come from patent publication US20230140293A1.

One assay deals with CH505 M11 gp120 (HIV-1). Put plainly: ELISA, gp120 on plate. On the technique in general: ELISA stands for enzyme-linked immunosorbent assay.
The target of another assay is CH505 M5 gp120 (HIV-1). In words: ELISA, gp120 on plate.
The target in assay [1] is CH505 transmitted/founder (TF) gp120 (HIV-1). In words: ELISA, gp120 on plate.
Assay [2] deals with CH505 w020.14 gp120 (HIV-1). In words: ELISA, gp120 on plate.
For assay [3], the target named is CH505 w030.21 gp120 (HIV-1). Put plainly: ELISA, gp120 on plate.
The target of assay [4] is CH505 w030.28 gp120 (HIV-1). In words: ELISA, gp120 on plate.
For assay [5], the target named is CH505 w053.16 gp120 (HIV-1). Put plainly: ELISA, gp120 on plate.
The target of assay [6] is CH505 w053.31 gp120 (HIV-1). In words: ELISA, gp120 on plate.
In assay [7] the target is CH505 w078.15 gp120 (HIV-1). Put plainly: ELISA, gp120 on plate.
The target of assay [8] is CH505 w078.33 gp120 (HIV-1). In words: ELISA, gp120 on plate.
Assay [9] deals with CH505 w100.B6 gp120 (HIV-1). Put plainly: ELISA, gp120 on plate.
The target of assay [10] is CH0505.w4.3 Env, Env-pseudotyped virus produced in 293T cells (HIV-1). Put plainly: cell-based or functional assay.
In assay [11] the target is CH0505TF Env, Env-pseudotyped virus produced in 293T cells (HIV-1). In words: cell-based or functional assay.
Assay [12] concerns the target CH0505TF Env, pseudotyped virus produced in 293S GnTI- cells (HIV-1). Put plainly: cell-based or functional assay.
Assay [13] has as its target CH0505TF.G458Y Env, Env-pseudotyped virus produced in 293T cells (HIV-1). Put plainly: cell-based or functional assay.
In assay [14] the target is CH0505TF.G458Y Env, pseudotyped virus produced in 293S GnTI- cells (HIV-1). Put plainly: cell-based or functional assay.
In assay [15] the target is CH0505TF.gly3.197 Env, Env-pseudotyped virus produced in 293T cells (HIV-1). In words: cell-based or functional assay.
Assay [16] has as its target CH0505TF.gly3.197 Env, pseudotyped virus produced in 293S GnTI- cells (HIV-1). Put plainly: cell-based or functional assay.
The target in assay [17] is CH0505TF.gly3.276 Env, Env-pseudotyped virus produced in 293T cells (HIV-1). Put plainly: cell-based or functional assay.
Assay [18] deals with CH0505TF.gly3.276 Env, pseudotyped virus produced in 293S GnTI- cells (HIV-1). In words: cell-based or functional assay.
The target in assay [19] is CH0505TF.gly3.461 Env, Env-pseudotyped virus produced in 293T cells (HIV-1). In words: cell-based or functional assay.
The target in assay [20] is CH0505TF.gly3.461 Env, pseudotyped virus produced in 293S GnTI- cells (HIV-1). Put plainly: cell-based or functional assay.
The target in assay [21] is CH0505TF.gly4 Env, Env-pseudotyped virus produced in 293T cells (HIV-1). Put plainly: cell-based or functional assay.
Assay [22] addresses CH0505TF.gly4 Env, pseudotyped virus produced in 293S GnTI- cells (HIV-1). Put plainly: cell-based or functional assay.
Assay [23] addresses HIV-1 426c.DM (N460D/N463D) Env on Env-pseudotyped virus produced in 293T cells (HIV-1). Put plainly: cell-based or functional assay.
In assay [24] the target is HIV-1 426c.DM (N460D/N463D) Env on Env-pseudotyped virus produced in 293s/GnTI-/- cells (Man5-enrichment) (HIV-1). Put plainly: cell-based or functional assay.
The target of assay [25] is HIV-1 426c.SM (N276D) Env on Env-pseudotyped virus produced in 293T cells (HIV-1). In words: cell-based or functional assay.
In assay [26] the target is HIV-1 426c.SM (N276D) Env on Env-pseudotyped virus produced in 293s/GnTI-/- cells (Man5-enrichment) (HIV-1). In words: cell-based or functional assay.
Assay [27] has as its target HIV-1 426c.TM (N276D/N460D/N463D) Env on Env-pseudotyped virus produced in 293T cells (HIV-1). In words: cell-based or functional assay.
In assay [28] the target is HIV-1 426c.TM (N276D/N460D/N463D) Env on Env-pseudotyped virus produced in 293s/GnTI-/- cells (Man5-enrichment) (HIV-1). In words: cell-based or functional assay.
The target in assay [29] is HIV-1 Env 426c, Env-pseudotyped virus produced in 293S GnTI- cells (Man5-enriched) (HIV-1 clade C strain 426c). In words: cell-based or functional assay.
The target of assay [30] is HIV-1 Env 426c, Env-pseudotyped virus produced in 293T cells (HIV-1 clade C strain 426c). In words: cell-based or functional assay.
In assay [31] the target is HIV-1 Env 426c.DM (N460D.N463D), Env-pseudotyped virus produced in 293S GnTI- cells (Man5-enriched) (HIV-1 clade C strain 426c). In words: cell-based or functional assay.
The target of assay [32] is HIV-1 Env 426c.DM (N460D.N463D), Env-pseudotyped virus produced in 293T cells (HIV-1 clade C strain 426c). Put plainly: cell-based or functional assay.
The target in assay [33] is HIV-1 Env 426c.SM (N276D), Env-pseudotyped virus produced in 293S GnTI- cells (Man5-enriched) (HIV-1 clade C strain 426c). Put plainly: cell-based or functional assay.
Assay [34] has as its target HIV-1 Env 426c.SM (N276D), Env-pseudotyped virus produced in 293T cells (HIV-1 clade C strain 426c). In words: cell-based or functional assay.
The target in assay [35] is HIV-1 Env 426c.TM (N276D.N460D.N463D), Env-pseudotyped virus produced in 293S GnTI- cells (Man5-enriched) (HIV-1 clade C strain 426c). Put plainly: cell-based or functional assay.
The target of assay [36] is HIV-1 Env 426c.TM (N276D.N460D.N463D), Env-pseudotyped virus produced in 293T cells (HIV-1 clade C strain 426c). Put plainly: cell-based or functional assay.
The target in assay [37] is HIV-1 Env 426c.TM4 (S278R.G471S.N460D.N463D), Env-pseudotyped virus produced in 293S GnTI- cells (Man5-enriched) (HIV-1 clade C strain 426c). In words: cell-based or functional assay.
In assay [38] the target is HIV-1 Env 426c.TM4 (S278R.G471S.N460D.N463D), Env-pseudotyped virus produced in 293T cells (HIV-1 clade C strain 426c). In words: cell-based or functional assay.
The target in assay [39] is HIV-1 clade C strain 426c Env on Env-pseudotyped virus produced in 293T cells (HIV-1). Put plainly: cell-based or functional assay.
Assay [40] concerns the target HIV-1 clade C strain 426c Env on Env-pseudotyped virus produced in 293s/GnTI-/- cells (Man5-enrichment) (HIV-1). In words: cell-based or functional assay.
In assay [41] the target is HIV-1 CH0505TF (CH505 transmitted/founder) Env on Env-pseudotyped virus produced in 293T cells (HIV-1). Put plainly: cell-based or functional assay.
The target of assay [42] is HIV-1 CH0505TF.G458Y Env on Env-pseudotyped virus produced in 293T cells (HIV-1). Put plainly: cell-based or functional assay.
For assay [43], the target named is HIV-1 CH0505TF.N280D Env on Env-pseudotyped virus produced in 293T cells (HIV-1). In words: cell-based or functional assay.
The target of assay [44] is HIV-1 CH0505TF.S365P Env on Env-pseudotyped virus produced in 293T cells (HIV-1). Put plainly: cell-based or functional assay.

“CH103 lineage intermediate ancestor IA1 (antibody)”: the log AUC turned out to be 12.2 log AUC with CH505 M11 gp120 (HIV-1); 7 log AUC with CH505 M5 gp120 (HIV-1); 10.4 log AUC in assay [1]; 10.3 log AUC in [2]; 11.8 log AUC in assay [3]; 10.1 log AUC in assay [4]. The log AUC in [5] stood at 8.8 log AUC; in assay [6], 13.4 log AUC; in assay [7], 10.9 log AUC; in assay [8], 8.2 log AUC; in assay [9], 12.2 log AUC.
As to “CH103 lineage intermediate ancestor IA2 (antibody)”, the log AUC amounted to 12.7 log AUC in the assay with CH505 M11 gp120 (HIV-1); 7.8 log AUC with CH505 M5 gp120 (HIV-1); 10.8 log AUC in assay [1]; 11 log AUC in assay [2]; 11.5 log AUC in [3]; 11.1 log AUC in assay [4]. Also, the log AUC in assay [5] was 9.3 log AUC; in assay [6], 13.3 log AUC; in [7], 11.5 log AUC; in assay [8], 9 log AUC; in assay [9] it was 12.1 log AUC.
On to CH104 (antibody), for which the log AUC turned out to be 12 log AUC with CH505 M11 gp120 (HIV-1); 9 log AUC with CH505 M5 gp120 (HIV-1); 10.4 log AUC in [1]; 10.4 log AUC in assay [2]; 11.3 log AUC in [3]; 10.7 log AUC in assay [4]. The log AUC was determined as 9.9 log AUC in assay [5]; 13.7 log AUC in assay [6]; 10.8 log AUC in [7]; 9 log AUC in [8]; 11 log AUC in assay [9].
As to CH105 (antibody), the log AUC was 11.7 log AUC with CH505 M11 gp120 (HIV-1); 8.6 log AUC in the assay with CH505 M5 gp120 (HIV-1); 11.2 log AUC in assay [1]; 10.4 log AUC in assay [2]; 10.6 log AUC in assay [3]; 9.1 log AUC in [4]. In addition, the log AUC turned out to be 9 log AUC in [5]; 13.5 log AUC in [6]; 10.1 log AUC in assay [7]; 8.9 log AUC in assay [8]; 11 log AUC in assay [9].
For CH106 (antibody), the log AUC in the assay with CH505 M11 gp120 (HIV-1) came out at 12.8 log AUC; in the assay with CH505 M5 gp120 (HIV-1), 8.4 log AUC; in assay [1], 11.3 log AUC; in assay [2], 11.2 log AUC; in [3], 10.9 log AUC; in assay [4], 11.7 log AUC. Moreover, the log AUC turned out to be 9.8 log AUC in [5]; 13.4 log AUC in [6]; 11 log AUC in assay [7]; 9.5 log AUC in assay [8]; 11.8 log AUC in assay [9].
On to VRC-CH31 (antibody), for which the IC50 (µg/ml) in TZM-bl was determined as 0.05 µg/mL in [10]; 0.03 µg/mL in assay [11]; 0.04 µg/mL in assay [12]; 0.023 µg/mL in assay [13]; 0.06 µg/mL in assay [14]; 0.01 µg/mL in assay [15]. The IC50 (µg/ml) in TZM-bl in assay [16] stood at 0.01 µg/mL; in assay [17], 0.002 µg/mL; in assay [18], 0.001 µg/mL; in assay [19], 0.09 µg/mL; in assay [20] it was 0.007 µg/mL; in [21], 0.002 µg/mL. Besides, the IC50 (µg/ml) in TZM-bl in assay [22] came out at 0.001 µg/mL; in assay [29], 0.04 µg/mL; in assay [30] it was 0.62 µg/mL; in assay [31] it was 0.02 µg/mL; in [32] it was 0.73 µg/mL; in assay [33], 0.7 µg/mL. The IC50 (µg/ml) in TZM-bl in assay [34] was above 25 µg/mL; in assay [35], 1.6 µg/mL; in assay [36] it was above 25 µg/mL; in assay [37], 0.01 µg/mL; in [38], 0.15 µg/mL; in [41] it was 0.03 µg/mL. The IC50 (µg/ml) in TZM-bl was below 0.01 µg/mL in assay [42], above 25 µg/mL in assay [43] and 1.2 µg/mL in [44]. Besides, the ID50/IC50 in TZM-bl in assay [23] was 0.73 µg/mL; in assay [24], 0.02 µg/mL; in [25] it was above 25 µg/mL; in [26], 0.7 µg/mL; in [27], above 25 µg/mL; in [28], 1.6 µg/mL. Also, the ID50/IC50 in TZM-bl was determined as 0.62 µg/mL in [39] and 0.04 µg/mL in assay [40].
